Laboratory results as given in PMC3807968 (2014).
[ ]: non-standard residue; d: D form. The star is where a group is joined. Butanoyl(4-Ph) = O=C(CCCc1ccccc1)*; Butanoyl(4-ethynyl) = C#CCCCC(=O)*

Target: T1, ligand 5 on uncrosslinked micelles, 5% loading (5-UXL) (not fully specified; also: uncrosslinked micelle)
T1 chain: {Butanoyl(4-Ph)}-H[dF]RWGK(Butanoyl(4-ethynyl))-NH2
Test: Eu-NDP-α-MSH time-resolved fluorescence whole-cell competition binding

Ki: 12 nM
B1: Melanocortin 1 receptor (protein)
chain: MAVQGSQRRLLGSLNSTPTAIPQLGLAANQTGARCLEVSISDGLFLSLGLVSLVENALVVATIAKNRNLHSPMYCFICCLALSDLLVSGSNVLETAVILLLEAGALVARAAVLQQLDNVIDVITCSSMLSSLCFLGAIAVDRYISIFYALRYHSIVTLPRARRAVAAIWVASVVFSTLFIAYYDHVAVLLCLVVFFLAMLVLMAVLYVHMLARACQHAQGIARLHKRQRPVHQGFGLKGAVTLTILLGIFFLCWGPFFLHLTLIVLCPEHPTCGCIFKNFNLFLALIICNAIIDPLIYAFHSQELRRTLKEVLTCSW
